Target: T1, Recombinant human IgG1 Fc (hFc) (human, UniProt P01857-1 100-330 = IgG part)
T1 construct: domain: Fc; Bought reagent; also called Recombinant Human IgG Fc
Test: sandwich ELISA: hEDAR-mFc coated, anti-human IgG (Fc) CH2-HRP detection
Protocol: For validation, ELISA plates (96-well Microtiter Plates, Nunc 96F Maxisorp (Thermo Fisher, Pittsburgh, Pa.)) were coated with 1 μg/mL hEDARmFc coating solution. For the binding step, standards, QCs, Blank (assay buffer alone), and other required samples were added to the appropriate wells of an assay plate. Plates were incubated for approximately 120 minutes and then washed. For the detection step, the detection reagent was added to each required well and the plate was incubated for approximately 60 minutes and then washed. For the substrate step, Ultra TMB (1-Step Ultra TMB-ELISA Substrate (Thermo Scientific, Pittsburgh, Pa.)) was added to each well and the plate was incubated for approximately 20 to 30 minutes. Color development was monitored at 650 nm so that development could be discontinued when the OD of the 250 ng/mL standard was between 1.3 and 1.4. To stop the color reaction, 2N sulfuric acid was added to each well. The OD at 450 nm was determined with the correction wavelength set at 540 nm.

B1: hEDAR-mFc (Fc fusion, human, UniProt Q9UNE0 27-183, looked up)
chain: EYSNCGENEYYNQTTGLCQECPPCGPGEEPYLSCGYGTKDEDYGCVPCPAEKFSKGGYQICRRHKDCEGFFRATVLTPGDMENDAECGPCLPGYYMLENRPRNIYGMVCYSCLLAPPNTKECVGATSGASANFPGTSGSSTLSPFQHAHKELSGQGH
notes: Capture reagent from Edimer Pharmaceuticals, coated at 1 µg/mL; also called capture reagent; not shown: mouse Fc (mFc)
- binding result: no binding (tested: 100 ng/mL)
